Patent US20110166062A1 (INDIANA UNIVERSITY RESEARCH AND TECHNOLOGY, published 2011)
Where no end group is shown, it is not given here. [ ]: non-standard residue; d: D form. The star is where a group is joined. PEG 40 kDa = PEG (40 kDa) covalently attached to Cys; Palmitoyl = CCCCCCCCCCCCCCCC(=O)*; Myristoyl = CCCCCCCCCCCCCC(=O)*; Dab = NCC[C@H](N)C(=O)O; Aib = CC(C)(N)C(=O)O

Experiments:
Assay in all cases: cell-based or functional assay
glucagon receptor = glucagon receptor (UniProt P47871 26-477, limits assumed)
Sequence of glucagon receptor (P47871 26-477 limits assumed): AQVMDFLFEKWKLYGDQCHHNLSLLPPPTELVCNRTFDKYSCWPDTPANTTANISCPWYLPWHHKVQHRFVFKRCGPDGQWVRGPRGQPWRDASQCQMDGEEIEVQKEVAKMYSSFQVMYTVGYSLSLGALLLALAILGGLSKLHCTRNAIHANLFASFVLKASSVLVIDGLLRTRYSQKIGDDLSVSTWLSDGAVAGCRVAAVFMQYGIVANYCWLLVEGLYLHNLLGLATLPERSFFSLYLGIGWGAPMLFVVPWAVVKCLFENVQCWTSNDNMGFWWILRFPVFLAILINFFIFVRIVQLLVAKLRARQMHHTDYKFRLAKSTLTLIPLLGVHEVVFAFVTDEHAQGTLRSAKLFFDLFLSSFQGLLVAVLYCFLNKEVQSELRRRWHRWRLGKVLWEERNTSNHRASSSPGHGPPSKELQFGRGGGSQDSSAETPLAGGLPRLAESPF

GLP-1 receptor = GLP-1 receptor (UniProt P43220 24-463, limits assumed)
GIP receptor = biological target: T1, GIP receptor (UniProt P48546 22-466)
T1 sequence (looked up): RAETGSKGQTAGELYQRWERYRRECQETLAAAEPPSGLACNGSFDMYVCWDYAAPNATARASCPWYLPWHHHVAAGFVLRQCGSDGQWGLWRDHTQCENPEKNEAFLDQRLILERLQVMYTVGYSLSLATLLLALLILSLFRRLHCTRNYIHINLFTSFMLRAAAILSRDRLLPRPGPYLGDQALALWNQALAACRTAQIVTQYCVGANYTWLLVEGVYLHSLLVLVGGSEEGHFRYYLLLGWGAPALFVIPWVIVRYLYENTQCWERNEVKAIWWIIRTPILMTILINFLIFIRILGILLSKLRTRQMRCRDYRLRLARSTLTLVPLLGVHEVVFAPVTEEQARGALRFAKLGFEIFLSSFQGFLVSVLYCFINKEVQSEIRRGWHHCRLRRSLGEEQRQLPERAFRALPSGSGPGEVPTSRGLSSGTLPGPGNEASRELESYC

Row | Binder | EC50 (glucagon receptor) [nM] | EC50 (GLP-1 receptor) [nM] | EC50 (GIP receptor) [nM] | relative activity (glucagon receptor) [%] | relative activity (GLP-1 receptor) [%] | relative activity (GIP receptor) [%]
1 | Y[Aib]EGTFTSDYSIYLDKQAA[Aib]EFVNWLLAGGPSSGAPPPSK(Myristoyl)-NH2 [mt-260] | 0.321 | 0.0068 | 0.0018 |  |  | 
2 | Y[Aib]EGTFTSDYSIYLDKQAA[Aib]EFVNWLLAGGPSSGAPPPSC(PEG 40 kDa)-NH2 [mt-274] | 69.1 | 0.0916 | 0.035 | 0.06 | 7.75 | 39.7
3 | YXQGTFTSDYSIYLDXQAAXEFVNWLLAGGPSSGAPPPSC (Orn at position 16; AIB at position 20) [mt-275] | 0.0671 | 0.0068 | 0.0124 | 62.1 | 104 | 112
4 | Y[Aib]QGTFTSDYSIYLD[Dab]QAA[Aib]EFVNWLLAGGPSSGAPPPSC-NH2 (N-terminus assumed; SMILES CC[C@H](C)[C@H](NC(=O)[C@H](CO)NC(=O)[C@H](Cc1ccc(O)cc1)NC(=O)[C@H](CC(=O)O)NC(=O)[C@H](CO)NC(=O)[C@@H](NC(=O)[C@H](Cc1ccccc1)NC(=O)[C@@H](NC(=O)CNC(=O)[C@H](CCC(N)=O)NC(=O)C(C)(C)NC(=O)[C@@H](N)Cc1ccc(O)cc1)[C@@H](C)O)[C@@H](C)O)C(=O)N[C@@H](Cc1ccc(O)cc1)C(=O)N[C@@H](CC(C)C)C(=O)N[C@@H](CC(=O)O)C(=O)N[C@@H](CCN)C(=O)N[C@@H](CCC(N)=O)C(=O)N[C@@H](C)C(=O)N[C@@H](C)C(=O)NC(C)(C)C(=O)N[C@@H](CCC(=O)O)C(=O)N[C@@H](Cc1ccccc1)C(=O)N[C@H](C(=O)N[C@@H](CC(N)=O)C(=O)N[C@@H](Cc1c[nH]c2ccccc12)C(=O)N[C@@H](CC(C)C)C(=O)N[C@@H](CC(C)C)C(=O)N[C@@H](C)C(=O)NCC(=O)NCC(=O)N1CCC[C@H]1C(=O)N[C@@H](CO)C(=O)N[C@@H](CO)C(=O)NCC(=O)N[C@@H](C)C(=O)N1CCC[C@H]1C(=O)N1CCC[C@H]1C(=O)N1CCC[C@H]1C(=O)N[C@@H](CO)C(=O)N[C@@H](CS)C(N)=O)C(C)C) [mt-276] | 0.0537 | 0.0066 | 0.008 | 77.7 | 108 | 174
5 | Y[Aib]EGTFTSDYSIYLDKQAA[Aib]EFVC(PEG 40 kDa)WLLAGGPSSGAPPPSK(Palmitoyl)-NH2 [mt-298] | 1.76 | 0.0087 | 0.0051 | 3.63 | 180 | 404
6 | Y[Aib]EGTFTSDYSIYLDKQAA[Aib]EFVCWLLAGGPSSGAPPPSK-NH2 (N-terminus assumed; SMILES CC[C@H](C)[C@H](NC(=O)[C@H](CO)NC(=O)[C@H](Cc1ccc(O)cc1)NC(=O)[C@H](CC(=O)O)NC(=O)[C@H](CO)NC(=O)[C@@H](NC(=O)[C@H](Cc1ccccc1)NC(=O)[C@@H](NC(=O)CNC(=O)[C@H](CCC(=O)O)NC(=O)C(C)(C)NC(=O)[C@@H](N)Cc1ccc(O)cc1)[C@@H](C)O)[C@@H](C)O)C(=O)N[C@@H](Cc1ccc(O)cc1)C(=O)N[C@@H](CC(C)C)C(=O)N[C@@H](CC(=O)O)C(=O)N[C@@H](CCCCN)C(=O)N[C@@H](CCC(N)=O)C(=O)N[C@@H](C)C(=O)N[C@@H](C)C(=O)NC(C)(C)C(=O)N[C@@H](CCC(=O)O)C(=O)N[C@@H](Cc1ccccc1)C(=O)N[C@H](C(=O)N[C@@H](CS)C(=O)N[C@@H](Cc1c[nH]c2ccccc12)C(=O)N[C@@H](CC(C)C)C(=O)N[C@@H](CC(C)C)C(=O)N[C@@H](C)C(=O)NCC(=O)NCC(=O)N1CCC[C@H]1C(=O)N[C@@H](CO)C(=O)N[C@@H](CO)C(=O)NCC(=O)N[C@@H](C)C(=O)N1CCC[C@H]1C(=O)N1CCC[C@H]1C(=O)N1CCC[C@H]1C(=O)N[C@@H](CO)C(=O)N[C@@H](CCCCN)C(N)=O)C(C)C) [mt-308] |  | 0.0237 | 0.0057 |  |  | 
